This data set concerns the molecule itself. Kind of data set: atomic force microscopy.

B1: B. stearothermophilus tryptophanyl-tRNA synthetase (TrpRS) (enzyme, UniProt P00953 1-328, looked up)
chain: MKTIFSGIQPSGVITIGNYIGALRQFVELQHEYNCYFCIVDQHAITVWQDPHELRQNIRRLAAKYLAVGIDPTQATLFIQSEVPAHAQAAWMLQCIVYIGELERMTQFKEKSAGKEAVSAGLLTYPPLMAADILLYNTDIVPVGEDQKQHIELTRDLAERFNKRYGELFTIPEARIPKVGARIMSLVDPTKKMSKSDPNPKAYITLLDDAKTIEKKIKSAVTDSEGTIRYDKEAKPGISNLLNIYSTLSGQSIEELERQYEGKGYGVFKADLAQVVIETLRPIQERYHHWMESEELDRVLDEGAEKANRVASEMVRKMEQAMGLGRRR
What is called Kd is the equilibrium constant for the complex coming apart. The protein B1 had a Kd of 5 nM.
